Results taken from patent publication US20260116984A1 (ENTHERA S R L, published 2026).

T1: Human Ecto-TMEM219 (human, UniProt Q86XT9 43-204)
T1 construct: also called hEcto-TMEM
T1 sequence: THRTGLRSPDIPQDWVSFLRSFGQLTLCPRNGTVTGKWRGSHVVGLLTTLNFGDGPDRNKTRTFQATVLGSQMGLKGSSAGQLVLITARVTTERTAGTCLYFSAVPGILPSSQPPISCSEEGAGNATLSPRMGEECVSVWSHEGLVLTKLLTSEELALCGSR

T2: Murine Ecto-TMEM219 (murine, UniProt Q9D123 43-203)
T2 construct: also called mEcto-TMEM
T2 sequence: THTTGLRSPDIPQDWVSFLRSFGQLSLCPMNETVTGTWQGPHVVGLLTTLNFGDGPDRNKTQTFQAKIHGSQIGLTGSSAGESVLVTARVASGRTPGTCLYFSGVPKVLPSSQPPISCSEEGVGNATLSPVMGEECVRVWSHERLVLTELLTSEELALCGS


How the values were obtained:
[1] = target: TMEM219 on human beta cells (Betalox-5) and human islets (human) (UniProt Q86XT9); experiment: cell-based or functional assay
Chain of TMEM219 on human beta cells (Betalox-5) and human islets (human) (Q86XT9 39-240): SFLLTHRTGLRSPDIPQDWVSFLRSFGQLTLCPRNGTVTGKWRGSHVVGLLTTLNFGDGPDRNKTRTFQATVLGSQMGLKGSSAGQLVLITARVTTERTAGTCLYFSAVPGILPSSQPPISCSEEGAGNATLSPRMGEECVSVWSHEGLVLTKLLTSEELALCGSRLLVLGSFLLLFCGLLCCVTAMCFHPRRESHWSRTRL

Human Ecto-TMEM219 [2] = target: T1, Human Ecto-TMEM219; experiment: ELISA, ectoTMEM coated at 5 µg/ml, antibody dilution series, anti-human-Fc HRP detection
Protocol: The binding activity of the purified IgG4 (TC03, TC04, TC05) to the recombinant ectoTMEM protein was measured by ELISA. In brief, ectoTMEM was diluted in PBS to 5 μg/ml and coated onto 96-well ELISA plates (100 μl/well) for 1 h at RT. After blocking and washing of the plates, an antibody dilution series was added to the plates and incubated for 1 h at RT. After washing of the plates, bound antibodies were detected via a secondary anti-human-Fc HRP-conjugated antibody. After another washing step, TMB reaction was performed, stopped with sulfuric acid and absorbance was measured. Based on the absorbance readings, an EC50 of the saturating antibodies was calculated.

Human Ecto-TMEM219 [3] = target: T1, Human Ecto-TMEM219; experiment: Octet BLI, antibody captured via Fc on biosensor, antigen at 150 nM
Protocol: (§1) The binding affinity measurements were performed using an Octet instrument (Octet BMIA), which is a Biolayer Interferometry (BLI) platform based on Biomolecular Interaction Analysis. To establish the assay, the target monoclonal antibody (30 μg/ml in PBS) was immobilized via Fc on the Anti-Mouse IgG Fc Capture (AMC) or Anti-Human IgG Fc Capture (AMC) biosensors and the interaction with the antigen, human and murine Ecto-TMEM219 (Genescript's customized protein service) at 150 nM was measured.

Murine Ecto-TMEM219 = target: T2, Murine Ecto-TMEM219; experiment: as above
Protocol: as §1

| Molecule | EC50 (Human Ecto-TMEM219 [2]) [µg/mL] | Kd (Human Ecto-TMEM219 [3]) [nM] | other results |
| --- | --- | --- | --- |
| Recombinant human IGFBP3 (from UniProt P17936 28-291) (ligand) |  |  | CASP8 mRNA upregulation in beta cells cultured with IGFBP3 [1]: 70%; cell death of beta cells challenged with IGFBP3 [1]: 30% |
| TC05 (antibody, human IgG4, V domains shown) VH: QIQLVQSGAEVKQPGASVSVSCAASGYTFTSYGISWVRQAPGQGLEWMGWISAYNGNTNYAQKLQGRVTMTTDTSTSTAYMELSSLRSDDTAVYYCARWGRWLAHDYWGQGTLVTVSS VL: QAVLTQPPSVSVSPGQTASITCSGDKLGNKNAYWYQQKPGQSPVLVMYQSTRRPSGIPERFSASNSGNTATLTISGTQAMDEADYYCQAWDSSSGWEVFGGGTKLTVL | 0.0791 |  |  |
| TC01 (antibody, V domains shown, also called anti-TMEM219 TC01; TCO1) VH: QIQLVQSGAEVKKPGASVKVSCKASGYTFTSYGISWVRQAPGQGLEWMGWISAYNGNTNYAQKLQGRVTMTTDTSTSTAYMELRSLRSDDTAVYYCARWGRWLAHDYWGQGTLVTVSS VL: QAVLTQPPSVSVSPGQTASITCSGDKLGNKNAYWYQQKPGQSPVLVMYQSTRRPSGIPERFSASNSGNTATLTISGTQAMDEADYYCQAWDSSSGWEVFGGGTKLTVL |  | 20 | Kd (Murine Ecto-TMEM219): 30 nM |
| TC03 (antibody, human IgG4, V domains shown) VH: QIQLVQSGAEVKQPGASVSVSCAASGYTFTSYGISWVRQAPGQGLEWMGWISAYNGNTNYAQKLQGRVTMTTDTSTSTAYMELSSLRSDDTAVYYCARWGRWLAHDYWGQGTLVTVSS VL: QAVLTQPPSVSVSPGQTASITCSGDKLGNKNAYWYQQKPGQSPVLVMYQSTRRPSGIPERFSASNSGNTATLTISGTQAMDEADYYCQAWLSSSGWEVFGGGTKLTVL | 0.0647 |  |  |
| TC04 (antibody, human IgG4, V domains shown) VH: QIQLVQSGAEVKQPGASVSVSCAASGYTFTSYGISWVRQAPGQGLEWMGWISAYNGNTNYAQKLQGRVTMTTDTSTSTAYMELSSLRSDDTAVYYCARWGRWLAHDYWGQGTLVTVSS VL: QAVLTQPPSVSVSPGQTASITCSGDKLGNKNAYWYQQKPGQSPVLVMYQSTRRPSGIPERFSASNSGNTATLTISGTQAEDEADYYCQAWDSSSGWEVFGGGTKLTVL | 0.0898 |  |  |
| TM1 (antibody, V domains shown, constant regions are not tied to it; also called anti-TMEM219 TM1) VH: QVQLVESGGGVVQPGRSLRLSCAASGFTFSTYGIHWVRQAPGKGLEWVAVIWYDGYNKYYVDSVKGRFTISRDNSENTVYLQMNSLRTEDTAVYYCAREGWFGKLLSALDIWGQGTMVTVSS VL: VIQMTQSPSSLSASVGDRVTITCRASQGIRNDLGWYLQKPGKAPELLIYPASSLQSGVPSRFSGSGSGTDFTLTISSLQPEDFATYYCLQDYNYPFTFGQGTKLEIK |  | < 0.001 | Kd (Murine Ecto-TMEM219): < 0.001 nM |
| TE10 (antibody, V domains shown) VH: QVQLVESGGGVVQPGRSLRLSCAASGFTFSSYGMHWVRQAPGKGLEWVAVIWYDGSNKYYADSVKGRFTISRDNSKNTLYLQMNSLRAEDTAVYYCAREGRGMDVWGQGTTVTVSS VL: QPVLTQSSSASASLGSSVKLTCTLSSGHSSYIIAWHQQQPGKAPRYLMKLEGSGSYNKGSGVPDRFSGSSSGADRYLTISNLQFEDEADYYCETWDSNTPHAVFGGGTQLTAL |  | < 0.001 |  |
